Experimental data from paper PMC11993163, “Structure-function studies of a nucleoplasmin isoform from Plasmodium falciparum” (The Journal of Biological Chemistry, 2025).

Key:
[1] = target: T1, assembled H2A/H2B dimer (UniProt P06897 1-130; P02281 1-126); experiment: AUC; settings: both partners purified
[2] = target: T2, assembled H3/H4 tetramer (UniProt P84233 1-136; P62799 1-103); experiment: AUC; settings: both partners purified
T2 construct: core histone H4, codon-optimized construct in pET21a(+), gift of Dr Curtis A. Davey, expressed without a fusion tag; the species of the histones is told nowhere; copies: 2 + 2

[3] = target: the molecule itself; experiment: AUC; sedimentation velocity, Optima AUC, absorbance at 280 nm 0.2-0.5, continuous size distribution (SEDFIT); PfNPM proteins alone and their histone complexes
[4] = target: T1, assembled H2A/H2B dimer; experiment: ITC; settings: both partners purified
[5] = target: T2, assembled H3/H4 tetramer; experiment: ITC; settings: both partners purified
[6] = target: the molecule itself; experiment: crystal structure; PfNPM NTD at 57 mg/ml, 0.2 M sodium malonate pH 5.0, 20% PEG3350; 3.25 Å, space group P3(1)21, five chains in the asymmetric unit

B1: PfNPM A1 (residues 1-110, up to A1 acidic tract) (domain or fragment, Plasmodium falciparum, UniProt C0H4U4 1-110, looked up)
chain: MFYGKVVKPDETVVPEVKDGYSVIHLSRACLNNPEHEGKIYVQVEDGNGCYNICCLQKNVCEDTPLDIFLMLDNDVKIKTSGSSNEVHIVGYYEVSFGQDNLDEDEDEFE
notes: PfNPM, nucleoplasmin isoform of Plasmodium falciparum, PlasmoDB PF3D7_0813300, UniProtKB C0H4U4, residues 1-110 (NTD and A1 acidic tract); pET28a(+) NcoI/XhoI, noncleavable C-terminal hexa-histidine tag; Pentamer by SV-AUC and SAXS; also called PfNPM (1-110); not shown: His6, C-terminal, kept
With B1 the “stoichiometry N” value [1] was 1 PfNPM pentamer : H2A/H2B dimer, the “stoichiometry N” value [2] was 1 PfNPM pentamer : H3/H4 tetramer and the “stoichiometry N” value [3] was 5. The Kd [4] was 1010 ± 68.6 nM, the “stoichiometry N” value [4] was 1 and the Kd [5] was 58.5 ± 1.76 nM. The “stoichiometry N” value [5] was 1.

B2: PfNPM NTD (Plasmodium falciparum nucleoplasmin N-terminal core domain, residues 1-98) (domain or fragment, UniProt C0H4U4 1-98, looked up)
chain: MFYGKVVKPDETVVPEVKDGYSVIHLSRACLNNPEHEGKIYVQVEDGNGCYNICCLQKNVCEDTPLDIFLMLDNDVKIKTSGSSNEVHIVGYYEVSFG
notes: PfNPM, nucleoplasmin isoform of Plasmodium falciparum, PlasmoDB PF3D7_0813300, UniProtKB C0H4U4, residues 1-98 of the 315-residue full length; Cloned into pET28a(+) between NcoI and XhoI with a noncleavable C-terminal hexa-histidine tag; Pentamer by crystal structure, SV-AUC and SAXS; also called PfNPM NTD (1-98); not shown: His6, C-terminal, kept
With B2 the “stoichiometry N” value [6] was 5.

B3: PfNPM A3 (residues 1-170, up to A3 acidic tract) (domain or fragment, Plasmodium falciparum, UniProt C0H4U4 1-170, looked up)
chain: MFYGKVVKPDETVVPEVKDGYSVIHLSRACLNNPEHEGKIYVQVEDGNGCYNICCLQKNVCEDTPLDIFLMLDNDVKIKTSGSSNEVHIVGYYEVSFGQDNLDEDEDEFEDEFDNDEVRMLTKKNTLKNSLSNGISKRKKNLENNEDDETNVGRNDEDDDDEDDEDDEDE
notes: PfNPM, nucleoplasmin isoform of Plasmodium falciparum, PlasmoDB PF3D7_0813300, UniProtKB C0H4U4, residues 1-170 (NTD and acidic tracts A1 to A3); pET28a(+) NcoI/XhoI, noncleavable C-terminal hexa-histidine tag; Pentamer by SV-AUC, SAXS and cryo-EM 2D class averages; also called PfNPM (1-170); not shown: His6, C-terminal, kept
B3 was tested, and the “stoichiometry N” value [1] was 1 PfNPM pentamer : H2A/H2B dimer, the “stoichiometry N” value [2] was 1 PfNPM pentamer : H3/H4 tetramer and the “stoichiometry N” value [3] was 5. For the same binder, the Kd [4] was 1000 ± 68.2 nM, the “stoichiometry N” value [4] was 1 and the Kd [5] was 38.9 ± 2.2 nM. For the same binder, the “stoichiometry N” value [5] was 1.
